Consider one substance from patent US20200121775A1.

For this assay, the target named is HLA A02:01 class I molecule with β2-microglobulin (human). The assay can be described thus: REVEAL MHC class I binding/stabilization assay (ProImmune).

In turn, positive control peptide (REVEAL assay) gave an REVEAL Score of 100 score.
